Holding throughout (assay type): binding
The nature of experiment [1]: Probe fluorescence ratio response to oleic acid relative to ADIFAB2. The note with it: response relative to ADIFAB2. In a few lines: (§1)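 Fluorescently labeled rat intestinal FABP variants were read at two emission wavelengths, near the unbound maximum (about 420 to 480 nm) and the FFA-bound maximum (about 495 to 580 nm). R = Fλ1/Fλ2 after subtracting probe-free intensity; ΔR = R+agent − R0, normalized to ADIFAB2 (rI-FABP-L72A).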

Experiment [2] in a line: Probe fluorescence ratio response to linolenic acid relative to ADIFAB2. Conditions: response relative to ADIFAB2. In a few lines: as §1
Experiment [3] in a line: Probe fluorescence ratio response to linoleic acid relative to ADIFAB2. Conditions: response relative to ADIFAB2. In a few lines: as §1
Experiment [4] in a line: Probe fluorescence ratio response to arachidonic acid relative to ADIFAB2. Conditions: arachidonic acid; response relative to ADIFAB2. In outline: as §1
Experiment [5] can be described thus: Probe fluorescence ratio response to palmitic acid relative to ADIFAB2. Conditions: response relative to ADIFAB2. In a few lines: as §1

B1: 115W, 72A (protein, listed as Rattus norvegicus)
chain: AFDGTWKVDRNENYEKFMEKMGINVVKRKLGAHDNLKLTITQEGNKFTVKESSNFRNIDVVFELGVDFAYSAADGTELTGTWTMEGNKLVGKFKRVDNGKELIAVREISGNELIWTYTYEGVEAKRIFKKE
modifications: PEPTIDE (1)...(131) wild-type rat intestinal fatty acid binding protein
In the case of B1, in experiment [1], the “DR/DR OA” value came to 1.352. Moreover, the “DR/DR LNA” value in experiment [2] worked out at 1.396. Also, the “DR/DR LA” value in experiment [3] turned out to be 1.486. For the same molecule, the “DR/DR AA” value in experiment [4] was found to be 1.483. Moreover, the “DR/DR PA” value in experiment [5] is given as 0.805.

B2: 70W, 72A (protein, listed as Rattus norvegicus)
chain: AFDGTWKVDRNENYEKFMEKMGINVVKRKLGAHDNLKLTITQEGNKFTVKESSNFRNIDVVFELGVDFAWSAADGTELTGTWTMEGNKLVGKFKRVDNGKELIAVREISGNELIQTYTYEGVEAKRIFKKE
modifications: PEPTIDE (1)...(131) wild-type rat intestinal fatty acid binding protein
Take B2: the “DR/DR OA” value in experiment [1] was determined as 0.381. The “DR/DR LNA” value in experiment [2] is 0.385. For the same molecule, in experiment [3], the “DR/DR LA” value is 0.451. For the same molecule, the “DR/DR AA” value in experiment [4] is reported as 0.349. The “DR/DR PA” value in experiment [5] was 0.212.

B3: 18K, 72A (protein, listed as Rattus norvegicus)
chain: AFDGTWKVDRNENYEKFKEKMGINVVKRKLGAHDNLKLTITQEGNKFTVKESSNFRNIDVVFELGVDFAYSAADGTELTGTWTMEGNKLVGKFKRVDNGKELIAVREISGNELIQTYTYEGVEAKRIFKKE
modifications: PEPTIDE (1)...(131) wild-type rat intestinal fatty acid binding protein
Regarding B3, in experiment [1], the “DR/DR OA” value is given as 0.803. The “DR/DR LNA” value in experiment [2] was determined as 0.925. Moreover, the “DR/DR LA” value in experiment [3] was determined as 0.967. Moreover, the “DR/DR AA” value in experiment [4] came out at 0.800. Moreover, the “DR/DR PA” value in experiment [5] was 0.544.

B4: 70S, 72A (protein, listed as Rattus norvegicus)
chain: AFDGTWKVDRNENYEKFMEKMGINVVKRKLGAHDNLKLTITQEGNKFTVKESSNFRNIDVVFELGVDFASSAADGTELTGTWTMEGNKLVGKFKRVDNGKELIAVREISGNELIQTYTYEGVEAKRIFKKE
modifications: PEPTIDE (1)...(131) wild-type rat intestinal fatty acid binding protein
Regarding B4, in experiment [1], the “DR/DR OA” value stood at 0.727. Besides, in experiment [2], the “DR/DR LNA” value turned out to be 0.703. The “DR/DR LA” value in experiment [3] stood at 0.794. In addition, the “DR/DR AA” value in experiment [4] is given as 0.625. For the same molecule, in experiment [5], the “DR/DR PA” value was determined as 0.416.

B5: 106F, 72A (protein, listed as Rattus norvegicus)
chain: AFDGTWKVDRNENYEKFMEKMGINVVKRKLGAHDNLKLTITQEGNKFTVKESSNFRNIDVVFELGVDFAYSAADGTELTGTWTMEGNKLVGKFKRVDNGKELIAVFEISGNELIQTYTYEGVEAKRIFKKE
modifications: PEPTIDE (1)...(131) wild-type rat intestinal fatty acid binding protein
On to B5, for which the “DR/DR OA” value in experiment [1] is recorded as 0.815. Further, the “DR/DR LNA” value in experiment [2] was determined as 0.706. For the same molecule, the “DR/DR LA” value in experiment [3] turned out to be 0.812. The “DR/DR AA” value in experiment [4] was 0.754. Also, the “DR/DR PA” value in experiment [5] was determined as 0.369.

B6: 40V, 72A (protein, listed as Rattus norvegicus)
chain: AFDGTWKVDRNENYEKFMEKMGINVVKRKLGAHDNLKLTVTQEGNKFTVKESSNFRNIDVVFELGVDFAYSAADGTELTGTWTMEGNKLVGKFKRVDNGKELIAVREISGNELIQTYTYEGVEAKRIFKKE
modifications: PEPTIDE (1)...(131) wild-type rat intestinal fatty acid binding protein
With B6, the “DR/DR OA” value in experiment [1] came to 1.002. Besides, the “DR/DR LNA” value in experiment [2] was 1.059. In addition, the “DR/DR LA” value in experiment [3] worked out at 1.057. Further, the “DR/DR AA” value in experiment [4] is on record as 1.013. In addition, the “DR/DR PA” value in experiment [5] worked out at 0.867.

B7: 55L, 72A (protein, listed as Rattus norvegicus)
chain: AFDGTWKVDRNENYEKFMEKMGINVVKRKLGAHDNLKLTITQEGNKFTVKESSNLRNIDVVFELGVDFAYSAADGTELTGTWTMEGNKLVGKFKRVDNGKELIAVREISGNELIQTYTYEGVEAKRIFKKE
modifications: PEPTIDE (1)...(131) wild-type rat intestinal fatty acid binding protein
Take B7: the “DR/DR OA” value in experiment [1] turned out to be 0.822. In addition, in experiment [2], the “DR/DR LNA” value turned out to be 0.719. Moreover, the “DR/DR LA” value in experiment [3] was 0.706. For the same molecule, the “DR/DR AA” value in experiment [4] was determined as 0.863. In addition, the “DR/DR PA” value in experiment [5] is on record as 0.631.

B8: 126K, 72A (protein, listed as Rattus norvegicus)
chain: AFDGTWKVDRNENYEKFMEKMGINVVKRKLGAHDNLKLTITQEGNKFTVKESSNFRNIDVVFELGVDFAYSAADGTELTGTWTMEGNKLVGKFKRVDNGKELIAVREISGNELIQTYTYEGVEAKKIFKKE
modifications: PEPTIDE (1)...(131) wild-type rat intestinal fatty acid binding protein
Regarding B8, the “DR/DR OA” value in experiment [1] was 0.631. Besides, the “DR/DR LNA” value in experiment [2] is 1.017. The “DR/DR LA” value in experiment [3] stood at 1.039. In addition, the “DR/DR AA” value in experiment [4] amounted to 0.625. In addition, the “DR/DR PA” value in experiment [5] is 0.356.

B9: 38G, 72A (protein, listed as Rattus norvegicus)
chain: AFDGTWKVDRNENYEKFMEKMGINVVKRKLGAHDNLKGTITQEGNKFTVKESSNFRNIDVVFELGVDFAYSAADGTELTGTWTMEGNKLVGKFKRVDNGKELIAVREISGNELIQTYTYEGVEAKRIFKKE
modifications: PEPTIDE (1)...(131) wild-type rat intestinal fatty acid binding protein
B9: the “DR/DR OA” value in experiment [1] came to 0.945. Also, the “DR/DR LNA” value in experiment [2] turned out to be 0.992. In experiment [3], the “DR/DR LA” value was found to be 1.003. In experiment [4], the “DR/DR AA” value is reported as 0.996. For the same molecule, the “DR/DR PA” value in experiment [5] worked out at 0.447.

B10: 38H, 72A (protein, listed as Rattus norvegicus)
chain: AFDGTWKVDRNENYEKFMEKMGINVVKRKLGAHDNLKHTITQEGNKFTVKESSNFRNIDVVFELGVDFAYSAADGTELTGTWTMEGNKLVGKFKRVDNGKELIAVREISGNELIQTYTYEGVEAKRIFKKE
modifications: PEPTIDE (1)...(131) wild-type rat intestinal fatty acid binding protein
Take B10: the “DR/DR OA” value in experiment [1] is given as 0.955. Besides, the “DR/DR LNA” value in experiment [2] came out at 0.864. Besides, the “DR/DR LA” value in experiment [3] is listed as 0.905. In addition, the “DR/DR AA” value in experiment [4] was 0.998. In addition, the “DR/DR PA” value in experiment [5] was found to be 0.624.

B11: 70H, 72A (protein, listed as Rattus norvegicus)
chain: AFDGTWKVDRNENYEKFMEKMGINVVKRKLGAHDNLKLTITQEGNKFTVKESSNFRNIDVVFELGVDFAHSAADGTELTGTWTMEGNKLVGKFKRVDNGKELIAVREISGNELIQTYTYEGVEAKRIFKKE
modifications: PEPTIDE (1)...(131) wild-type rat intestinal fatty acid binding protein
Consider B11, for which the “DR/DR OA” value in experiment [1] is 0.836. Also, the “DR/DR LNA” value in experiment [2] is 0.886. For the same molecule, the “DR/DR LA” value in experiment [3] worked out at 0.929. In experiment [4], the “DR/DR AA” value was 0.751. Further, the “DR/DR PA” value in experiment [5] was 0.567.

B12: 72A 117A (protein, listed as Rattus norvegicus)
chain: AFDGTWKVDRNENYEKFMEKMGINVVKRKLGAHDNLKLTITQEGNKFTVKESSNFRNIDVVFELGVDFAYSAADGTELTGTWTMEGNKLVGKFKRVDNGKELIAVREISGNELIQTATYEGVEAKRIFKKE
modifications: PEPTIDE (1)...(131) wild-type rat intestinal fatty acid binding protein
On to B12, for which the “DR/DR OA” value in experiment [1] is given as 1.080. In experiment [2], the “DR/DR LNA” value came to 0.689. For the same molecule, the “DR/DR LA” value in experiment [3] is 1.193. Further, the “DR/DR AA” value in experiment [4] was 1.480. Further, the “DR/DR PA” value in experiment [5] is listed as 0.433.

B13: 106H, 72A (protein, listed as Rattus norvegicus)
chain: AFDGTWKVDRNENYEKFMEKMGINVVKRKLGAHDNLKLTITQEGNKFTVKESSNFRNIDVVFELGVDFAYSAADGTELTGTWTMEGNKLVGKFKRVDNGKELIAVHEISGNELIQTYTYEGVEAKRIFKKE
modifications: PEPTIDE (1)...(131) wild-type rat intestinal fatty acid binding protein
Regarding B13, the “DR/DR OA” value in experiment [1] is 0.732. Further, in experiment [2], the “DR/DR LNA” value is given as 0.633. In addition, the “DR/DR LA” value in experiment [3] is 0.669. Moreover, in experiment [4], the “DR/DR AA” value came to 0.636. Moreover, the “DR/DR PA” value in experiment [5] came to 0.258.

B14: 91Y, 72A (protein, listed as Rattus norvegicus)
chain: AFDGTWKVDRNENYEKFMEKMGINVVKRKLGAHDNLKLTITQEGNKFTVKESSNFRNIDVVFELGVDFAYSAADGTELTGTWTMEGNKLVYKFKRVDNGKELIAVREISGNELIQTYTYEGVEAKRIFKKE
modifications: PEPTIDE (1)...(131) wild-type rat intestinal fatty acid binding protein
As for B14, the “DR/DR OA” value in experiment [1] stood at 1.706. Further, in experiment [2], the “DR/DR LNA” value turned out to be 1.626. Moreover, the “DR/DR LA” value in experiment [3] amounted to 1.415. In addition, the “DR/DR AA” value in experiment [4] amounted to 1.273. Further, the “DR/DR PA” value in experiment [5] is 0.870.

B15: 91C, 72A (protein, listed as Rattus norvegicus)
chain: AFDGTWKVDRNENYEKFMEKMGINVVKRKLGAHDNLKLTITQEGNKFTVKESSNFRNIDVVFELGVDFAYSAADGTELTGTWTMEGNKLVCKFKRVDNGKELIAVREISGNELIQTYTYEGVEAKRIFKKE
modifications: PEPTIDE (1)...(131) wild-type rat intestinal fatty acid binding protein
Consider B15, for which the “DR/DR OA” value in experiment [1] is given as 1.470. The “DR/DR LNA” value in experiment [2] was determined as 1.420. The “DR/DR LA” value in experiment [3] worked out at 1.371. Also, in experiment [4], the “DR/DR AA” value is given as 1.201. Further, the “DR/DR PA” value in experiment [5] is given as 0.794.
